Measured values from publication PMC9537309, “The solution structure of Dead End bound to AU-rich RNA reveals an unusual mode of tandem RRM-RNA recognition required for mRNA regulation”.
Changes are numbered by the printed parent chain.

What was measured:
DND1 RRM2 = biological target: T1, DND1 RRM2 (human, UniProt Q8IYX4 136-227); assay: NMR titration; ITC: 100 mM potassium phosphate pH 6.6, 1 mM 2-mercaptoethanol, 25 C; NMR: 100 mM potassium phosphate pH 6.6, 1 mM DTT, 298 K (or 20 mM MES pH 6.6, 100 mM NaCl); Supplementary Fig. 3: 25 mM NaCl, 2 mM DTT, pH 6.3, 303 K; details: protein: recombinant; tags: N-terminal 6xHis, TEV-cleaved
T1 sequence: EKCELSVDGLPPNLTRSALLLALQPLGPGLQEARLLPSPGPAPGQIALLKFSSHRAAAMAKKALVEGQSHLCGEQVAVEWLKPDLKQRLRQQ

DND1 extended RRM1 = biological target: T2, DND1 extended RRM1 (human, UniProt Q8IYX4 12-139); assay: as above; details: protein: recombinant; tags: N-terminal 6xHis, TEV-cleaved
T2 sequence: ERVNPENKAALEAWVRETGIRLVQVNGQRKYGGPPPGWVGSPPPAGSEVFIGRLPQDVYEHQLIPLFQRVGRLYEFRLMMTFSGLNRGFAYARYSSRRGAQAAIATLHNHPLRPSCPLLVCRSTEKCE

[1] = biological target: T3, DND1 RRM12 (tandem RRMs) WT (human, UniProt Q8IYX4 12-235); assay: NMR titration; highest affinity of the three oligos; ITC: 100 mM potassium phosphate pH 6.6, 1 mM 2-mercaptoethanol, 25 C; NMR: 100 mM potassium phosphate pH 6.6, 1 mM DTT, 298 K (or 20 mM MES pH 6.6, 100 mM NaCl); Supplementary Fig. 3: 25 mM NaCl, 2 mM DTT, pH 6.3, 303 K; details: protein: recombinant; tags: N-terminal 6xHis, TEV-cleaved
T3 sequence: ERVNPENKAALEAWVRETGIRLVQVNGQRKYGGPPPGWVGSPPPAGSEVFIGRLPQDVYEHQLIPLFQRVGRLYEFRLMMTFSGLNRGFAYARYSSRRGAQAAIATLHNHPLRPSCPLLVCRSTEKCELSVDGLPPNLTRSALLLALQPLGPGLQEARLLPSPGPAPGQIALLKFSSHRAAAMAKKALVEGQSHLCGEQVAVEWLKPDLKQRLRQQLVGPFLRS

[2] = biological target: T3, DND1 RRM12 (tandem RRMs) WT; assay: ITC; N = 1.04; text and Supplementary Table 2 print 0.68; ITC: 100 mM potassium phosphate pH 6.6, 1 mM 2-mercaptoethanol, 25 C; NMR: 100 mM potassium phosphate pH 6.6, 1 mM DTT, 298 K (or 20 mM MES pH 6.6, 100 mM NaCl); Supplementary Fig. 3: 25 mM NaCl, 2 mM DTT, pH 6.3, 303 K; details: protein: recombinant; tags: N-terminal 6xHis, TEV-cleaved; label: selective 13C-ribose in some structure samples; unlabeled in titrations
DND1 RRM12 M90A = biological target: T4, DND1 RRM12 M90A (human, UniProt Q8IYX4 12-235, M90A); assay: NMR titration; ITC: 100 mM potassium phosphate pH 6.6, 1 mM 2-mercaptoethanol, 25 C; NMR: 100 mM potassium phosphate pH 6.6, 1 mM DTT, 298 K (or 20 mM MES pH 6.6, 100 mM NaCl); Supplementary Fig. 3: 25 mM NaCl, 2 mM DTT, pH 6.3, 303 K; details: protein: recombinant; tags: N-terminal 6xHis, TEV-cleaved; label: selective 13C-ribose in some structure samples; unlabeled in titrations
T4 sequence: T3 sequence with M79A

DND1 RRM12 R98A = biological target: T5, DND1 RRM12 R98A (human, UniProt Q8IYX4 12-235, R98A); assay: as above; details: protein: recombinant; tags: N-terminal 6xHis, TEV-cleaved; label: selective 13C-ribose in some structure samples; unlabeled in titrations
T5 sequence: T3 sequence with R87A

DND1 RRM12 T135A = biological target: T6, DND1 RRM12 T135A (human, UniProt Q8IYX4 12-235, T135A); assay: NMR titration; binding not reduced; ITC: 100 mM potassium phosphate pH 6.6, 1 mM 2-mercaptoethanol, 25 C; NMR: 100 mM potassium phosphate pH 6.6, 1 mM DTT, 298 K (or 20 mM MES pH 6.6, 100 mM NaCl); Supplementary Fig. 3: 25 mM NaCl, 2 mM DTT, pH 6.3, 303 K; details: protein: recombinant; tags: N-terminal 6xHis, TEV-cleaved; label: selective 13C-ribose in some structure samples; unlabeled in titrations
T6 sequence: T3 sequence with T124A

DND1 RRM12 K197A = biological target: T7, DND1 RRM12 K197A (human, UniProt Q8IYX4 12-235, K197A); assay: ITC; N = 0.98; ITC: 100 mM potassium phosphate pH 6.6, 1 mM 2-mercaptoethanol, 25 C; NMR: 100 mM potassium phosphate pH 6.6, 1 mM DTT, 298 K (or 20 mM MES pH 6.6, 100 mM NaCl); Supplementary Fig. 3: 25 mM NaCl, 2 mM DTT, pH 6.3, 303 K; details: protein: recombinant; tags: N-terminal 6xHis, TEV-cleaved; label: selective 13C-ribose in some structure samples; unlabeled in titrations
T7 sequence: T3 sequence with K186A

B1: UUUUUCC (ssRNA)
RNA: UUUUUCC
B1: no binding (DND1 RRM2); no binding (DND1 extended RRM1).

B2: UUAUUU (ssRNA)
RNA: UUAUUU
B2: no binding (DND1 RRM2); binds [1].

B3: UUUUUAC (ssRNA)
RNA: UUUUUAC
B3: no binding (DND1 RRM2); no binding (DND1 extended RRM1).

B4: CUUAUUUG (ssRNA)
RNA: CUUAUUUG
With B4 the Kd [2] was 0.69 ± 0.03 µM, the binding result (DND1 RRM12 M90A) was “no binding” and the binding result (DND1 RRM12 R98A) was “no binding”. The binding result (DND1 RRM12 T135A) was “binds” and the Kd (DND1 RRM12 K197A) was 2.6 ± 0.1 µM.
